B1: E81C (designed binder)
chain: SMEEEVEKAAKEYEKKKKEAIEKHLEKLKAKDKEAAERFLKELEEAAKEYAKDEAKTMSEEEAKRRAKKYKEKVLLSELSCEEQKEIKEAEEKLVRTILKYVEEAAK
B2: R96S (designed binder)
chain: B1 chain with C81E, R96S
B3: V95Y (designed binder)
chain: B1 chain with C81E, V95Y
B4: E81Y (designed binder)
chain: B1 chain with C81Y
B5: E45F (designed binder)
chain: B1 chain with E45F, C81E
B6: K100F (designed binder)
chain: B1 chain with C81E, K100F
B7: A51F (designed binder)
chain: B1 chain with A51F, C81E
B8: E45P (designed binder)
chain: B1 chain with E45P, C81E
B9: K31T (designed binder)
chain: B1 chain with K31T, C81E
B10: M58R (designed binder)
chain: B1 chain with M58R, C81E
B11: E49C (designed binder)
chain: B1 chain with E49C, C81E
B12: K18G (designed binder)
chain: B1 chain with K18G, C81E
B13: K56P (designed binder)
chain: B1 chain with K56P, C81E
B14: E86S (designed binder)
chain: B1 chain with C81E, E86S
B15: E89M (designed binder)
chain: B1 chain with C81E, E89M
B16: K11D (designed binder)
chain: B1 chain with K11D, C81E
B17: E86R (designed binder)
chain: B1 chain with C81E, E86R
B18: E44Q (designed binder)
chain: B1 chain with E44Q, C81E
B19: A90G (designed binder)
chain: B1 chain with C81E, A90G
B20: E104Q (designed binder)
chain: B1 chain with C81E, E104Q
B21: R65S (designed binder)
chain: B1 chain with R65S, C81E
B22: E82C (designed binder)
chain: B1 chain with C81E, E82C
B23: K52S (designed binder)
chain: B1 chain with K52S, C81E
B24: T57L (designed binder)
chain: B1 chain with T57L, C81E
B25: Y13E (designed binder)
chain: B1 chain with Y13E, C81E
B26: E49W (designed binder)
chain: B1 chain with E49W, C81E
B27: K15W (designed binder)
chain: B1 chain with K15W, C81E
B28: A105F (designed binder)
chain: B1 chain with C81E, A105F
B29: K18F (designed binder)
chain: B1 chain with K18F, C81E
B30: L28A (designed binder)
chain: B1 chain with L28A, C81E
B31: E89P (designed binder)
chain: B1 chain with C81E, E89P
B32: Y70C (designed binder)
chain: B1 chain with Y70C, C81E
B33: S80Y (designed binder)
chain: B1 chain with S80Y, C81E
B34: M58Q (designed binder)
chain: B1 chain with M58Q, C81E
B35: L94T (designed binder)
chain: B1 chain with C81E, L94T
B36: A35F (designed binder)
chain: B1 chain with A35F, C81E
B37: A67N (designed binder)
chain: B1 chain with A67N, C81E
B38: E103R (designed binder)
chain: B1 chain with C81E, E103R
B39: E5K (designed binder)
chain: B1 chain with E5K, C81E
B40: E62A (designed binder)
chain: B1 chain with E62A, C81E
B41: M2C (designed binder)
chain: B1 chain with M2C, C81E
B42: A30L (designed binder)
chain: B1 chain with A30L, C81E
B43: K31H (designed binder)
chain: B1 chain with K31H, C81E
B44: S59L (designed binder)
chain: B1 chain with S59L, C81E
B45: K23H (designed binder)
chain: B1 chain with K23H, C81E
B46: K56C (designed binder)
chain: B1 chain with K56C, C81E
B47: V95R (designed binder)
chain: B1 chain with C81E, V95R
B48: K73M (designed binder)
chain: B1 chain with K73M, C81E
B49: A9W (designed binder)
chain: B1 chain with A9W, C81E
B50: Y13W (designed binder)
chain: B1 chain with Y13W, C81E
B51: A9N (designed binder)
chain: B1 chain with A9N, C81E
B52: E42D (designed binder)
chain: B1 chain with E42D, C81E
B53: R38K (designed binder)
chain: B1 chain with R38K, C81E
B54: K71P (designed binder)
chain: B1 chain with K71P, C81E
B55: L94S (designed binder)
chain: B1 chain with C81E, L94S

Consider 55 molecules from paper PMC12416549 (2024).

Where a chain is given by its changes, count along the chain named. In names and notes the source's numbering stands.

For this assay, the target named is T1, TNFR1 (Homo sapiens, UniProt P19438).
T1 chain: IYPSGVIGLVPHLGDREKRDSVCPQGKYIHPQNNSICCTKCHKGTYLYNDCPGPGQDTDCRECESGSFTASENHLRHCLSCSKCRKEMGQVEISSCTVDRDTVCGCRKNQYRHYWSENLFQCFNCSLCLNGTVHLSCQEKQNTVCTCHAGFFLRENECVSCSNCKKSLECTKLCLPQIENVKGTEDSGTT
Description: yeast display SC50.
B1: the “apparent Kd (screen)” value was determined as 0.869 nM.

As for B2, the “apparent Kd (screen)” value stood at 2.48 nM.

Consider B3, for which the “apparent Kd (screen)” value stood at 3 nM.

Take B4: the “apparent Kd (screen)” value came to 0.653 nM.

Take B5: the “apparent Kd (screen)” value amounted to 4.39 nM.

For the molecule B6, the “apparent Kd (screen)” value was found to be 1.27 nM.

For B7, the “apparent Kd (screen)” value came out at 0.593 nM.

B8: the “apparent Kd (screen)” value was found to be 7.78 nM.

Regarding B9, the “apparent Kd (screen)” value stood at 0.593 nM.

In the case of B10, the “apparent Kd (screen)” value turned out to be 12.5 nM.

B11: the “apparent Kd (screen)” value was found to be 13.8 nM.

As to B12, the “apparent Kd (screen)” value is 0.653 nM.

For B13, the “apparent Kd (screen)” value was found to be 24.4 nM.

As to B14, the “apparent Kd (screen)” value stood at 0.718 nM.

With B15, the “apparent Kd (screen)” value was found to be 1.05 nM.

For B16, the “apparent Kd (screen)” value turned out to be 0.446 nM.

Regarding B17, the “apparent Kd (screen)” value came to 0.593 nM.

Consider B18, for which the “apparent Kd (screen)” value was 0.653 nM.

With B19, the “apparent Kd (screen)” value turned out to be 0.49 nM.

Take B20: the “apparent Kd (screen)” value turned out to be 1.05 nM.

Take B21: the “apparent Kd (screen)” value is 1.69 nM.

As to B22, the “apparent Kd (screen)” value amounted to 1.86 nM.

Take B23: the “apparent Kd (screen)” value came to 0.446 nM.

As for B24, the “apparent Kd (screen)” value is 0.107 nM.

Take B25: the “apparent Kd (screen)” value was determined as 1.54 nM.

For B26, the “apparent Kd (screen)” value is 16.7 nM.

As for B27, the “apparent Kd (screen)” value stood at 1.16 nM.

On to B28, for which the “apparent Kd (screen)” value was 3 nM.

Regarding B29, the “apparent Kd (screen)” value turned out to be 0.869 nM.

On to B30, for which the “apparent Kd (screen)” value was 0.718 nM.

For B31, the “apparent Kd (screen)” value came out at 10.4 nM.

As to B32, the “apparent Kd (screen)” value stood at 7.78 nM.

As to B33, the “apparent Kd (screen)” value worked out at 2.05 nM.

As to B34, the “apparent Kd (screen)” value came to 11.4 nM.

Take B35: the “apparent Kd (screen)” value stood at 0.446 nM.

In the case of B36, the “apparent Kd (screen)” value came to 0.956 nM.

With B37, the “apparent Kd (screen)” value was 7.07 nM.

On to B38, for which the “apparent Kd (screen)” value turned out to be 0.539 nM.

Regarding B39, the “apparent Kd (screen)” value came to 0.446 nM.

On to B40, for which the “apparent Kd (screen)” value turned out to be 0.446 nM.

As to B41, the “apparent Kd (screen)” value amounted to 2.73 nM.

For the molecule B42, the “apparent Kd (screen)” value was 0.593 nM.

With B43, the “apparent Kd (screen)” value worked out at 0.446 nM.

For the molecule B44, the “apparent Kd (screen)” value was determined as 1.05 nM.

Regarding B45, the “apparent Kd (screen)” value came out at 0.49 nM.

Take B46: the “apparent Kd (screen)” value amounted to 10.4 nM.

For the molecule B47, the “apparent Kd (screen)” value worked out at 7.78 nM.

On to B48, for which the “apparent Kd (screen)” value is 0.869 nM.

In the case of B49, the “apparent Kd (screen)” value worked out at 3 nM.

Turning to B50, the “apparent Kd (screen)” value worked out at 2.73 nM.

As to B51, the “apparent Kd (screen)” value was 0.869 nM.

Take B52: the “apparent Kd (screen)” value came out at 2.73 nM.

For the molecule B53, the “apparent Kd (screen)” value is 10.4 nM.

For B54, the “apparent Kd (screen)” value turned out to be 11.4 nM.

Turning to B55, the “apparent Kd (screen)” value worked out at 12.5 nM.
